Here are results for one protein from paper PMC3594340 (Journal of the American Society for Mass Spectrometry, 2013).

The data set deals with the molecule itself. The data set is described as follows: cross-linking.

B1: SO_2176 from Shewanella oneidensis (natural protein)
chain: MAIQSKYSNTQVESLIAEILVVLEKHKAPTDLSLMALGNCVTHLLERKVPSESRQAVAEQFAKALAQSVKSN
Take B1: the binding result is “binds”.
